Data taken from paper PMC4102245, “A molecular model for the role of SYCP3 in meiotic chromosome organisation” (eLife, 2014).

Biological target: T1, SYCP3 dCt6 dBP1+2 (human, UniProt Q8IZU3 1-230, K52A;R53A;R54A;K55A;K56A;R57A;K88A;R89A;K90A;R91A)
T1 sequence: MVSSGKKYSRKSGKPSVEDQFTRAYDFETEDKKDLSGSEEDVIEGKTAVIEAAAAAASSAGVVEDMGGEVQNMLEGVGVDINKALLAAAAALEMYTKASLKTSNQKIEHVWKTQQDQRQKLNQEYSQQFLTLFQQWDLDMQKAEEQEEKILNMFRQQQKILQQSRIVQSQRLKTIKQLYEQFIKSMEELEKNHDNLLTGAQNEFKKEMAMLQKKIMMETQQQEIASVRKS
Experiment: fluorescence anisotropy; up to 20 uM protein; 20 mM Tris pH 8.0, 150 mM KCl; FA at 25 C with 25 nM DNA (0-20 uM protein); EMSA 5 min at 4 C with 18.7 uM (per bp) DNA (0-40 uM protein), 0.5% agarose, 0.5x TBE
Settings: protein: recombinant; tags: N-terminal His6, TEV-cleaved; chain copies: 4; label: 5' FAM

B1: 60 bp FAM-dsDNA (dsDNA)
DNA 1: ATGGTGTGTGTAGGTTAATGTGAGGAGGAGAGGTGAAGAAGGAGGAGAGAAGAAGGAGGC
DNA 2: GCCTCCTTCTTCTCTCCTCCTTCTTCACCTCTCCTCCTCACATTAACCTACACACACCAT
- binding result: no binding
